Test results taken from patent US5652340.

Biological target: T1, SATB1 80 kDa deltaSATB1 (bacterially produced) (Homo sapiens) (UniProt Q01826)
T1 sequence: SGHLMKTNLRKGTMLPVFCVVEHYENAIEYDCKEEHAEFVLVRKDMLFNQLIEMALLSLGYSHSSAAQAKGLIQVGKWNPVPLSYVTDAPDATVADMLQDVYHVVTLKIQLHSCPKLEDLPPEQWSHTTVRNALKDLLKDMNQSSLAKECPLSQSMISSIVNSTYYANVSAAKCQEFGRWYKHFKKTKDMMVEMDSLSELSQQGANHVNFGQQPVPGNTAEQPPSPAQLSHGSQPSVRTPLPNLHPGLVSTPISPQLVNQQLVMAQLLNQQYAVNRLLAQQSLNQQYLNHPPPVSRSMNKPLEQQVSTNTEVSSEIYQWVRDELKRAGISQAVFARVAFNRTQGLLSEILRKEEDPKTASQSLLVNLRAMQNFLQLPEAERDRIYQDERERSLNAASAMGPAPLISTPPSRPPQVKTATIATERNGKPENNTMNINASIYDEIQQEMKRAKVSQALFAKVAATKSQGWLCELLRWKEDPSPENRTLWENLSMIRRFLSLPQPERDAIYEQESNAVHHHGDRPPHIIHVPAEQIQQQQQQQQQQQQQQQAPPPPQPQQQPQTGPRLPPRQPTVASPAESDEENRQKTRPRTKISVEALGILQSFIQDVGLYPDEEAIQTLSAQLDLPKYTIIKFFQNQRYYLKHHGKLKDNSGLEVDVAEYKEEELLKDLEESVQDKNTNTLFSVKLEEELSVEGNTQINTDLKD
Test: EMSA

TCTTTAATTTCTAATATATTTAGAATTC (double strand) [wild-type (25)2]
koff: 0.0167 s⁻¹
